{"source": "paper PMC3931814", "about": "“Dehydroepiandrosterone Sulfate (DHEAS) Stimulates the First Step in the Biosynthesis of Steroid Hormones” (PLoS ONE, 2014)", "binders": {"B1": {"name": "bovine adrenodoxin (natural protein, UniProt P00257 59-186, looked up)", "chain": "SSSEDKITVHFINRDGETLTTKGKIGDSLLDVVVQNNLDIDGFGACEGTLACSTCHLIFEQHIFEKLEAITDEENDMLDLAYGLTDRSRLGCQICLTKAMDNMTVRVPDAVSDARESIDMGMNSSKIE", "notes": "adrenodoxin (Adx), bovine, the ferredoxin that transfers electrons to CYP11A1; [2Fe-2S] protein; also called Adx"}}, "conditions_in_all_cases": "both partners purified", "key": {"CYP11A1 [1]": {"target": "T1, CYP11A1 (UniProt P00189 40-520)", "T1 construct": "CYP11A1 (cholesterol side-chain cleavage cytochrome P450); Single band at 55 kDa on SDS gel; Heme protein; also called recombinant CYP11A1; His-tagged CYP11A1; source: E. coli C43(DE3), co-transformed with groEL/groES chaperones, purified (IMAC Ni-NTA, SP-sepharose)", "T1 sequence (looked up)": "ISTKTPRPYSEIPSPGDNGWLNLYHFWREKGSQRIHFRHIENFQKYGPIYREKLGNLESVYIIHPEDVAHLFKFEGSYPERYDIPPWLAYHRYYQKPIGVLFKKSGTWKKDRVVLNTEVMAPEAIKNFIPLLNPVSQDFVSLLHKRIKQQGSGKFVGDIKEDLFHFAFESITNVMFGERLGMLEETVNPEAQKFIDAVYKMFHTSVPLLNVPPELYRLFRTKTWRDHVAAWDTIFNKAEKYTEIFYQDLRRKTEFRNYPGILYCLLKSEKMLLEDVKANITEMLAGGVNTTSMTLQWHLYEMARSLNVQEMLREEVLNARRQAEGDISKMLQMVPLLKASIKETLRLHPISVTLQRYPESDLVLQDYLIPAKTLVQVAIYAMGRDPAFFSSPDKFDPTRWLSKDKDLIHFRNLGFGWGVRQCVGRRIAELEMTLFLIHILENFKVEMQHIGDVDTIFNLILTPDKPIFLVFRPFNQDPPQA", "experiment": "SPR; Biacore3000; CYP11A1 injected at 5-7.5 nM in HBS-EP buffer, at least three times each; bound CYP11A1 removed with 2 mM NaOH; in absence of cholesterol; Biaeval 4.1"}, "CYP11A1 [2]": {"target": "T1, CYP11A1", "experiment": "SPR; Biacore3000; CYP11A1 injected at 5-7.5 nM in HBS-EP buffer, at least three times each; bound CYP11A1 removed with 2 mM NaOH; in absence of cholesterol; Biaeval 4.1", "design": "scale not given here"}, "CYP11A1 [3]": {"target": "T1, CYP11A1", "experiment": "SPR; Biacore3000; CYP11A1 injected at 5-7.5 nM in HBS-EP buffer; bound CYP11A1 removed with 2 mM NaOH; in the presence of cholesterol (CYP11A1:cholesterol 1:10 by the methods, 1:15 by the legend of Figure 7); Biaeval 4.1"}, "CYP11A1 [4]": {"target": "T1, CYP11A1", "experiment": "SPR; Biacore3000; CYP11A1 injected at 5-7.5 nM in HBS-EP buffer; bound CYP11A1 removed with 2 mM NaOH; in the presence of cholesterol (CYP11A1:cholesterol 1:10 by the methods, 1:15 by the legend of Figure 7); Biaeval 4.1", "design": "scale not given here"}, "CYP11A1 [5]": {"target": "T1, CYP11A1", "experiment": "SPR; Biacore3000; CYP11A1 injected at 5-7.5 nM in HBS-EP buffer; bound CYP11A1 removed with 2 mM NaOH; in the presence of cholesterol and DHEAS (CYP11A1:cholesterol:DHEAS 1:10:50 by the methods, 1:15:75 by the legend of Figure 7); Biaeval 4.1"}}, "data": [{"binder": "B1", "values": [{"measurement": "Kd", "setting": "CYP11A1 [1]", "value": "3.8 ± 0.55", "unit": "nM"}, {"measurement": "koff", "setting": "CYP11A1 [2]", "value": "2.4 ± 0.99", "unit": "s⁻¹"}, {"measurement": "Kd", "setting": "CYP11A1 [3]", "value": "3 ± 0.35", "unit": "nM"}, {"measurement": "koff", "setting": "CYP11A1 [4]", "value": "2.8 ± 0.09", "unit": "s⁻¹"}, {"measurement": "Kd", "setting": "CYP11A1 [5]", "value": "2.4 ± 0.05", "unit": "nM"}]}]}
